# Data published in patent US20230241243A1, “CARRIER PARTICLE-DRUG CONJUGATES, SELF-IMMOLATIVE LINKERS, AND USES THEREOF” (priority 2020, published 2023).
# Assay: Drug-release assay of nanoparticle-conjugated linker-payloads under cleavage conditions (Cat-B, redox-responsive or pH-sensitive cleaving study), RP-HPLC
# Format: in vitro ADME
# Details: linker-payload conjugated to DBCO-functionalized silica nanoparticle, 37° C., 24 hours
# Description: To assess the drug releasing profile of exemplary linker-drug conjugates, the linker-drug conjugates were each conjugated to a DBCO-functionalized ultrasmall silica nanoparticle via a click chemistry reaction between the azide groups on the linker-drug conjugate precursors and the dibenzocyclooctyne (DBCO) groups of the nanoparticles. The resulting drug-nanoparticle-conjugates were then incubated under the desired releasing conditions for release kinetics tests.
# The amount of released drugs vs non-released drugs was measured using reverse phase HPLC by analyzing the area under curve (AUC) (FIG. 10A and FIG. 10B).
# General Method: A Waters Xbridge Peptide BEH C18 column with 4.6 mm×50 mm dimensions, a particle size of 5 μm, and a pore size of 300 A was used (part number 186003622). Acetonitrile (VWR HiPerSolv Chromanorm, UHPLC Grade) was used as received without further preparation, […] trifluoroacetic acid in deionized water was prepared by adding 1 mL of trifluoroacetic acid (HPLC grade, Millipore-Sigma) into 999 mL 18.2 MΩ·cm deionized water that was generated using an IQ7000 Millipore deionized water system and passed through a 0.2 μm filter before use. The seal wash used for the system was composed of 90% 18.2 MΩ·cm deionized water and 10% methanol (HPLC grade, VWR). The injection needle was washed using a mixture of 25 vol % 18.2 MΩ·cm deionized water, 25 vol % acetonitrile, 25 vol % methanol, and 25 vol % 2-propanol. Samples were prepared in a concentration range of 0.25 to 2 μM and the injection volume ranges from 60 μL to 10 μL, respectively. Higher sample concentration can be used if detector signal is low. Vials used for all injections are fresh Waters Total Recovery vials with screw caps that have pre-slit PTFE septa (part number 186000385C).
# Method for Protease-cleavable and Redox-responsive Linkers: Before any sample injections were started, the PDA lamp was turned on and allowed to warm up for at least 30 minutes. The system and column were equilibrated with 95% 0.01% TFA in deionized water, 5% acetonitrile for at least 10 minutes at a flow rate of 1.0 mL/min after the PDA lamp had warmed up. Two blank injections, with injection volumes of 10 μL containing only 18.2 MΩ·cm deionized water, were performed before the injection of any samples for analysis. The gradient used to elute protease-cleavable and redox-sensitive linkers conjugated to hybrid silica nanoparticles, and their components began at 95% 0.01% TFA in deionized water and 5% acetonitrile and linearly changed to 15% 0.01% TFA in deionized water, 85% acetonitrile over 8 minutes. Acetonitrile composition was increased to 95% over an additional minute and held at 95% for an additional 2 minutes to ensure that any strongly retained compounds are eluted. The composition of the solvent was then changed back to the starting composition of the gradient over an additional minute and allowed to equilibrate for 3 minutes before another injection began. Between sample injections a blank injection was run to ensure that no carryover occurred.
# Method for pH-sensitive Linkers: Before any sample injections were started, the PDA lamp was turned on and allowed to warm up for at least 30 minutes. A gradient of pure deionized water and acetonitrile was used, all other consumables including column and vials were the same as for the method to purify Cat-B sensitive and redox-responsive linkers elaborated on above. Briefly the gradient composition began at 95% deionized water and 5% acetonitrile at a flow rate of 1.0 mL/min (not changed throughout the method). The composition was changed from this starting composition to 15% deionized water and 85% acetonitrile over a 12-minute period, during which the retained drug-linkers, released drug, free drug linker, and any other impurities eluted. At the 12-minute mark the composition was rapidly changed to 5% deionized water and 95% acetonitrile over the course of one minute. […]
row,SMILES,% of Payload Release in 24 Hours Under Cleavage Conditions
1,"CCc1c2c(nc3ccc(OCc4ccc(NC(=O)[C@H](CCCNC(N)=O)NC(=O)[C@@H](NC(=O)CCOCCOCCOCCOCCOCCN=[N+]=[N-])C(C)C)cc4)cc13)-c1cc3c(c(=O)n1C2)COC(=O)[C@]3(O)CC [Example 47, 1-azido-N-((S)-1-(((S)-1-((4-((((S)-4,11-diethyl-4-hydroxy-3,14-dioxo-3,4,12,14-tetrahydro-1H-pyrano[3′,4′:6,7]indolizino[1,2-b]quinolin-9-yl)oxy)methyl)phenyl)amino)-1-oxo-5-ureidopentan-2-yl)amino)-3-methyl-1-oxobutan-2-yl)-3,6,9,12,15-pentaoxaoctadecan-18-amide]",+ (‘+’ indicates 5-25% release)
2,"CCc1c2c(nc3ccc(OCc4ccc(NC(=O)[C@H](CCCNC(N)=O)NC(=O)[C@@H](NC(=O)CCOCCOCCOCCOCCOCCOCCOCCOCCOCCN=[N+]=[N-])C(C)C)cc4)cc13)-c1cc3c(c(=O)n1C2)COC(=O)[C@]3(O)CC [Example 48, 1-azido-N-((S)-1-(((S)-1-((4-((((S)-4,11-diethyl-4-hydroxy-3,14-dioxo-3,4,12,14-tetrahydro-1H-pyrano[3′,4′:6,7]indolizino[1,2-b]quinolin-9-yl)oxy)methyl)phenyl)amino)-1-oxo-5-ureidopentan-2-yl)amino)-3-methyl-1-oxobutan-2-yl)-3,6,9,12,15,18,21,24,27-nonaoxatriacontan-30-amide]",+ (‘+’ indicates 5-25% release)
3,"CCc1c2c(nc3ccc(OCc4ccc(NC(=O)[C@H](CCCNC(N)=O)NC(=O)[C@@H](NC(=O)CCOCCOCCOCCOCCOCCOCCOCCOCCOCCOCCOCCN=[N+]=[N-])C(C)C)cc4)cc13)-c1cc3c(c(=O)n1C2)COC(=O)[C@]3(O)CC [Example 49, 1-azido-N-((S)-1-(((S)-1-((4-((((S)-4,11-diethyl-4-hydroxy-3,14-dioxo-3,4,12,14-tetrahydro-1H-pyrano[3′,4′:6,7]indolizino[1,2-b]quinolin-9-yl)oxy)methyl)phenyl)amino)-1-oxo-5-ureidopentan-2-yl)amino)-3-methyl-1-oxobutan-2-yl)-3,6,9,12,15,18,21,24,27,30,33-undecaoxahexatriacontan-36-amide]",+ (‘+’ indicates 5-25% release)
4,"CC[C@@]1(O)C(=O)OCc2c1cc1n(c2=O)Cc2c-1nc1cc(F)c(C)c3c1c2[C@@H](NC(=O)[C@@H](CCCNC(N)=O)NC(=O)[C@@H](NC(=O)CCOCCOCCOCCOCCOCCOCCOCCOCCOCCOCCOCCN=[N+]=[N-])C(C)C)CC3 [Example 50, 1-azido-N-((S)-1-(((R)-1-(((1S,9S)-9-ethyl-5-fluoro-9-hydroxy-4-methyl-10,13-dioxo-2,3,9,10,13,15-hexahydro-1H,12H-benzo[de]pyrano[3′,4′:6,7]indolizino[1,2-b]quinolin-1-yl)amino)-1-oxo-5-ureidopentan-2-yl)amino)-3-methyl-1-oxobutan-2-yl)-3,6,9,12,15,18,21,24,27,30,33-undecaoxahexatriacontan-36-amide]",+ (‘+’ indicates 5-25% release)
5,"CCc1c2c(nc3ccc(OCCCSSC(C)(C)CNC(=O)CCOCCOCCOCCOCCOCCN=[N+]=[N-])cc13)-c1cc3c(c(=O)n1C2)COC(=O)[C@]3(O)CC [Example 54, (S)-1-azido-N-(2-((3-((4,11-diethyl-4-hydroxy-3,14-dioxo-3,4,12,14-tetrahydro-1H-pyrano[3′,4′:6,7]indolizino[1,2-b]quinolin-9-yl)oxy)propyl)disulfanyl)-2-methylpropyl)-3,6,9,12,15-pentaoxaoctadecan-18-amide]",+ (‘+’ indicates 5-25% release)
6,"CCc1c2c(nc3ccc(OCCCSSC(C)(C)CNC(=O)CCOCCOCCOCCOCCOCCOCCOCCOCCOCCN=[N+]=[N-])cc13)-c1cc3c(c(=O)n1C2)COC(=O)[C@]3(O)CC [Example 55, (S)-1-Azido-N-(2-((3-((4,11-diethyl-4-hydroxy-3,14-dioxo-3,4,12,14-tetrahydro-1H-pyrano[3′,4′:6,7]indolizino[1,2-b]quinolin-9-yl)oxy)propyl)disulfanyl)-2-methylpropyl)-3,6,9,12,15,18,21,24,27-nonaoxatriacontan-30-amide]",+ (‘+’ indicates 5-25% release)
7,"CCc1c2c(nc3ccc(OCCCSSC(C)(C)CNC(=O)CCOCCOCCOCCOCCOCCOCCOCCOCCOCCOCCOCCN=[N+]=[N-])cc13)-c1cc3c(c(=O)n1C2)COC(=O)[C@]3(O)CC [Example 56, (S)-1-azido-N-(2-((3-((4,11-diethyl-4-hydroxy-3,14-dioxo-3,4,12,14-tetrahydro-1H-pyrano[3′,4′:6,7]indolizino[1,2-b]quinolin-9-yl)oxy)propyl)disulfanyl)-2-methylpropyl)-3,6,9,12,15,18,21,24,27,30,33-undecaoxahexatriacontan-36-amide]",+ (‘+’ indicates 5-25% release)
8,"CCc1c2c(nc3ccc(OCCCNC(=O)OCc4ccc(SSC(C)(C)CNC(=O)CCOCCOCCOCCOCCOCCOCCOCCOCCOCCN=[N+]=[N-])cc4)cc13)-c1cc3c(c(=O)n1C2)COC(=O)[C@]3(O)CC [Example 59, 4-((1-azido-33-methyl-30-oxo-3,6,9,12,15,18,21,24,27-nonaoxa-31-azatetratriacontan-33-yl)disulfanyl)benzyl (S)-(3-((4,11-diethyl-4-hydroxy-3,14-dioxo-3,4,12,14-tetrahydro-1H-pyrano[3′,4′:6,7]indolizino[1,2-b]quinolin-9-yl)oxy)propyl)carbamate]",+++ (‘+++’ indicates 51-75% release)
9,"CC[C@@]1(O)C(=O)OCc2c1cc1n(c2=O)Cc2c-1nc1cc(F)c(C)c3c1c2[C@@H](NC(=O)CSSC(C)(C)CNC(=O)CCOCCOCCOCCOCCOCCOCCOCCOCCOCCOCCOCCOCCN=[N+]=[N-])CC3 [Example 60, 1-azido-N-(2-((2-(((1S,9S)-9-ethyl-5-fluoro-9-hydroxy-4-methyl-10,13-dioxo-2,3,9,10,13,15-hexahydro-1H,12H-benzo[de]pyrano[3′,4′:6,7]indolizino[1,2-b]quinolin-1-yl)amino)-2-oxoethyl)disulfaneyl)-2-methylpropyl)-3,6,9,12,15,18,21,24,27,30,33,36-dodecaoxanonatriacontan-39-amide]",+++ (‘+++’ indicates 51-75% release)
10,"CCc1c2c(nc3ccc(OCCCNC(=O)OCCSSCCNC(=O)CCOCCOCCOCCOCCOCCOCCOCCOCCOCCN=[N+]=[N-])cc13)-c1cc3c(c(=O)n1C2)COC(=O)[C@]3(O)CC [Example 61, 37-Azido-8-oxo-11,14,17,20,23,26,29,32,35-nonaoxa-3,4-dithia-7-azaheptatriacontyl (S)-(3-((4,11-diethyl-4-hydroxy-3,14-dioxo-3,4,12,14-tetrahydro-1H-pyrano[3′,4′:6,7]indolizino[1,2-b]quinolin-9-yl)oxy)propyl)carbamate]",+ (‘+’ indicates 5-25% release)

# Same assay, conditions: linker-payload conjugated to nanoparticle, 37° C., @ 3 Hrs
row,SMILES,% of Payload Release Under Cleavage Conditions
1,"CCc1c2c(nc3ccc(OCC(=O)N/N=C(/C)c4ccc(OCCOCCOCCOCCOCCOCCN=[N+]=[N-])cc4)cc13)-c1cc3c(c(=O)n1C2)COC(=O)[C@]3(O)CC [Example 64, (S,Z)-N′-(1-(4-((17-azido-3,6,9,12,15-pentaoxaheptadecyl)oxy)phenyl)ethylidene)-2-((4,11-diethyl-4-hydroxy-3,14-dioxo-3,4,12,14-tetrahydro-1H-pyrano[3′,4′:6,7]indolizino[1,2-b]quinolin-9-yl)oxy)acetohydrazide]",+++ @ 3 Hrs (‘+++’ indicates 51-75% release)
